This assay addresses Spa2(281-535) (S. cerevisiae (budding yeast)) (UniProt P23201). Nature of the assay: AUC; sedimentation velocity; 20 mM HEPES pH 7.4, 50 mM NaCl, 20 °C; Spa2(281-535) 18 μM, Spa2(1-535) 13 μM, Spa2(1-281) 17 μM.

Consider “Spa2(281-535) (from UniProt P23201 281-535) (domain or fragment)”, for which the stoichiometry N turned out to be 2.

In general, stoichiometry N refers to the number of molecules, sites or subunits per partner or assembly.

The values above are taken from publication PMC11130202.
